Data: patent US8173771B2, “Humanin receptor or humanin-like polypeptide receptor” (Keio Univeristy, priority 2005, dated 2012)
Peptide text beside a SMILES is read from it.

Legend:
IL-6 receptor = target: T1, IL-6 receptor (Rattus norvegicus, UniProt P22273); test: In vitro pull-down assay with HN- or HNA-conjugated Sepharose 4B; type: binding; details: lysates of F11 cells overexpressing IL-6R
T1 construct: V6 (so in the source); probably V5); host or cells: F11 cells (lysate)
T1 sequence (P22273 20-462): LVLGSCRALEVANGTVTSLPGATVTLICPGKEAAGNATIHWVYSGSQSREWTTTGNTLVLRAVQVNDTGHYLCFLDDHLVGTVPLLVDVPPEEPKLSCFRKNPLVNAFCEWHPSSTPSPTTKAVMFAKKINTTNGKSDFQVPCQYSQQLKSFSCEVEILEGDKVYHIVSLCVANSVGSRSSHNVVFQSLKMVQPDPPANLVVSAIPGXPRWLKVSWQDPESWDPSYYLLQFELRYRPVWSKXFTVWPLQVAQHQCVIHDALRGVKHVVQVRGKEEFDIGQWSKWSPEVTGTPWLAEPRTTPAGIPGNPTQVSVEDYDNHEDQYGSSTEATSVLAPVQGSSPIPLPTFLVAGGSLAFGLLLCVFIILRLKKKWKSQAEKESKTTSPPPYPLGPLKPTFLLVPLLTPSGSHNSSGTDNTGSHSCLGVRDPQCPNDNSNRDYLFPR
Source text: (§1) C) The photos show the results of in vitro pull down assay using HN- or HNA-conjugated Sepharose 4B bead. WSX-1, CNTF-R, and […] were over-expressed in F11 cells and the pull down assay was made using the above 4B bead. Immunoblot analysis was done using PO4 antibody against Humanin (lower panes). HN or HNA comprised in the above Sepharose 4B bead was compared with synthesized HN peptide (50 pmol) as a positive control.
(§2) F11 cells (7×10^4/well in 6-well plates) were transfected with the plasmids encoding mycHis-WSX-1, V5-CNTF-R or rat IL-6R (V6 tagged). At 48 hrs after transfection, the cells were harvested for pull-down assays with HN or HNA-conjugated Sepharose 4B. For conjugation of […] or HNA with Sepharose 4B, 3 ml of CNBr-activated Sepharose 4B was incubated with 0.5 mg of HN or HNA in a coupling buffer (0.1M NaHCO3 0.5M NaCl, pH8.3) overnight at 4° C. The beads were then reacted with a blocking buffer (0.2M glycine, pH 8.0) for 2 hrs at a room temperature, washed with the coupling buffer and stored at 4° C. for use in pull-down assay. For each pull-down assay, 20 μl of 1:1 slurry of Sepharose was used for 100 μl of the cell lysate.

WSX-1 = target: T2, WSX-1 (Homo sapiens, UniProt Q6UWB1); test: as above; type: binding; details: lysates of F11 cells overexpressing WSX-1
T2 construct: His; expressed in transfected cells; host or cells: F11 cells (lysate)
T2 sequence (Q6UWB1 33-636): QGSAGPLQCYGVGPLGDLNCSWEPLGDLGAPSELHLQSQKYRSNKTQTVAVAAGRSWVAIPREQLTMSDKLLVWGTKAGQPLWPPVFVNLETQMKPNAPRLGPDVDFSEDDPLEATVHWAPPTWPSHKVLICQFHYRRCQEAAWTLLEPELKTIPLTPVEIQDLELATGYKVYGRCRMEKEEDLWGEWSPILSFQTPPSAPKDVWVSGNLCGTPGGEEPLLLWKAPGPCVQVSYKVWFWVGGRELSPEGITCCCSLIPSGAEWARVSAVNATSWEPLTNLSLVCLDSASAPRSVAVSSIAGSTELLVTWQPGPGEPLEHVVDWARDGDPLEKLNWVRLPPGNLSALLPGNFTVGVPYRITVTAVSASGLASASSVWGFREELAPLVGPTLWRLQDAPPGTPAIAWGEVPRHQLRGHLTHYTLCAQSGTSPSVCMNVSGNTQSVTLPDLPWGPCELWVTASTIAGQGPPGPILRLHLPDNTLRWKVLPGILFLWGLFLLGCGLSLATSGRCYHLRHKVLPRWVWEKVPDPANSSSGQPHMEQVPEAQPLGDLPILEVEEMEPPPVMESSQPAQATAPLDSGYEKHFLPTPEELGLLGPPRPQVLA
Source text: as §1, §2

CNTF receptor = target: T3, CNTF receptor (Homo sapiens, UniProt P26992); test: as above; type: binding; details: lysates of F11 cells overexpressing CNTF-R
T3 construct: V5 (C); host or cells: F11 cells (lysate)
T3 sequence (P26992 23-342): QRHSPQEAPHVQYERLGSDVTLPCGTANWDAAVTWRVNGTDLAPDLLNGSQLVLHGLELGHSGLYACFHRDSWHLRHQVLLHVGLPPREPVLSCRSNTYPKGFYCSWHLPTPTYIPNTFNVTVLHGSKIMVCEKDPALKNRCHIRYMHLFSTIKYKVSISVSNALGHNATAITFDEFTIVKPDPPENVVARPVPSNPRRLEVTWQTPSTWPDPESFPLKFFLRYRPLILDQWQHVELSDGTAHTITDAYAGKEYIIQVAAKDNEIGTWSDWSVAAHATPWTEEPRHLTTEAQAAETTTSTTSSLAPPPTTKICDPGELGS
Source text: as §1, §2

STAT3 = test: Immunoblot of phosphotyrosine 705 of STAT3 in F11 cells; type: cell-based
Protocol: E) F11 cells were transfected with an indicated amount of pRNA-U6.1/Shuttle vector (empty), pRNA-U6.1/Shuttle-IL-6R siRNA, or pRNA-U6.1/Shuttle-LIFR siRNA. At 48 hrs after transfection, the cells were treated with 100 ng/ml IL-6, 100 ng/ml CNTF or 1 μM HNG at 37° for 15 min, and harvested. The results of immunoblot analysis using anti-phophoSTAT3 ([…]) antibody and anti-STAT3 antibody were shown in photos. A) F11 cells were added with an indicated amount of HN, HNG or HNA and harvested 15 min later for immunoblot analysis with antibodies recognizing phosphotyrosine 705 of STAT3 or STAT3. The results are shown in photos. B) F11 cells were transfected with 0.5 μg of pRNA-U1.6/Shuttle vector, pRNA-U6.1/Shuttle-WSX-1 siRNA, pRNA-U6.1/Shuttle-CNTF-R siRNA, both pRNA-U6.1/Shuttle-WSX-1 siRNA and pRNA-U6.1/Shuttle-CNTF-R siRNA (0.5 μg each), or pRNA-U6.1/Shuttle-FPR2 siRNA. The total amount of vectors was adjusted to be 1.0 μg by including a backbone vector. […] The results are shown in photos. Cell lysates (10-20 μg/lane) or pulled-down precipitates were subject to SDS-PAGE, and the proteins separated on the gel were transferred onto polyvinylidene difluoride membranes as described (Hashimoto et al, 2000). Visualization of the immunoreactive protein bands was performed by ECL (Amersham Pharmacia Biotech, Uppsala, Sweden).

Molecule	binding in pull-down to IL-6 receptor (IL-6 receptor)	binding in pull-down to WSX-1 (WSX-1)	binding in pull-down to CNTF receptor (CNTF receptor)	phosphorylation of tyrosine 705 of STAT3 (STAT3; F11 cells, 15 min)	phosphorylation of tyrosine 705 of STAT3 (STAT3; decrease of expression of endogenous CNTF-R or WSX-1 by siRNA)
C8A-Humanin (MAPRGFSALLLLTSEIDLPVKRRA) [HNA]	did not bind	did not bind	did not bind		
CC[C@H](C)[C@H](NC(=O)[C@H](CCC(=O)O)NC(=O)CNC(=O)[C@@H](NC(=O)[C@H](CC(C)C)NC(=O)[C@H](CC(C)C)NC(=O)[C@H](CC(C)C)NC(=O)[C@H](CC(C)C)NC(=O)[C@H](CS)NC(=O)[C@H](CO)NC(=O)[C@H](Cc1ccccc1)NC(=O)CNC(=O)[C@H](CCCNC(=N)N)NC(=O)[C@@H]1CCCN1C(=O)[C@H](C)NC(=O)[C@@H](N)CCSC)[C@@H](C)O)C(=O)N[C@@H](CC(=O)O)C(=O)N[C@@H](CC(C)C)C(=O)N1CCC[C@H]1C(=O)N[C@H](C(=O)N[C@@H](CCCCN)C(=O)N[C@@H](CCCNC(=N)N)C(=O)N[C@@H](CCCNC(=N)N)C(=O)N[C@@H](C)C(=O)O)C(C)C [HNG, S14 G-Humanin] (H-MAPRGFSCLLLLTGEIDLPVKRRA-OH; N-terminus and C-terminus assumed)				increased	almost completely inhibited
